Our source for the binding result and Kd values is paper PMC2241861.

Test in all cases: EMSA
Data set [1] deals with T1, TWINKLE wt (lacks mitochondrial targeting sequence 1-42) (human, UniProt Q96RR1 43-684).
T1 sequence: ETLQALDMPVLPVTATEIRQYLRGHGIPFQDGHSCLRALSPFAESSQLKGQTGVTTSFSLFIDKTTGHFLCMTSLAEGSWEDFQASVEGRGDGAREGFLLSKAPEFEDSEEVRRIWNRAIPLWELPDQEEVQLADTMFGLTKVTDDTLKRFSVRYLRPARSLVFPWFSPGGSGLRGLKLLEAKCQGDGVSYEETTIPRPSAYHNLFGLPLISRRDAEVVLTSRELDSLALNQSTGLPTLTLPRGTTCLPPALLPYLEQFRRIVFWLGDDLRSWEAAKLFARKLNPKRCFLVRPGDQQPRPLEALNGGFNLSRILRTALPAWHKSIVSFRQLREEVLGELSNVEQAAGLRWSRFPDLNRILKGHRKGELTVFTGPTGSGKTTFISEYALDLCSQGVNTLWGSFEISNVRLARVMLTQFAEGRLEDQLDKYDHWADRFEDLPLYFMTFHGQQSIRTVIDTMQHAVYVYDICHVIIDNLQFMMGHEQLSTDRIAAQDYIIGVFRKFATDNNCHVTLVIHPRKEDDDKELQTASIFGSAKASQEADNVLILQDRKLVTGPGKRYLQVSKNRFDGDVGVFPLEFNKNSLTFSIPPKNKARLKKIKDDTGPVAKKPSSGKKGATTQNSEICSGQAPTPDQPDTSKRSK

The target of data set [2] is T1, TWINKLE wt (lacks mitochondrial …). This is another data set of the same source.
Data set [3] has as its target T2, TWINKLE Δ1-121 (human, UniProt Q96RR1 122-684, del1-121).
T2 sequence: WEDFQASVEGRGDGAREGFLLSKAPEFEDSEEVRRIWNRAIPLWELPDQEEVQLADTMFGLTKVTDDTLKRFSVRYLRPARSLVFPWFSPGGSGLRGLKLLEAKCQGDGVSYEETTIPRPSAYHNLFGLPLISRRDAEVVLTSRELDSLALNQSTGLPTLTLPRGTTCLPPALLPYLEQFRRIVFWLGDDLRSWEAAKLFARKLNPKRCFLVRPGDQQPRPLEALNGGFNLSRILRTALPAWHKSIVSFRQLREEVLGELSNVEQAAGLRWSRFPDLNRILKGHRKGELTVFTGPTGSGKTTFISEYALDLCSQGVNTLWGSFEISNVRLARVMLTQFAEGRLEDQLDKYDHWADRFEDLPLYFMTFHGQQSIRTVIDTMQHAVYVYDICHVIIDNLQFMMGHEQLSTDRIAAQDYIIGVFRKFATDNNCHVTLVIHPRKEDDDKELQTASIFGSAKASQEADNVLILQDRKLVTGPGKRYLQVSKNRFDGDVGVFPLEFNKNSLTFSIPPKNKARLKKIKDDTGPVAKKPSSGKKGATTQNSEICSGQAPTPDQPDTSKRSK

Data set [4] addresses T3, TWINKLE Δ372-684 (human, UniProt Q96RR1 43-371, del372-684).
T3 sequence: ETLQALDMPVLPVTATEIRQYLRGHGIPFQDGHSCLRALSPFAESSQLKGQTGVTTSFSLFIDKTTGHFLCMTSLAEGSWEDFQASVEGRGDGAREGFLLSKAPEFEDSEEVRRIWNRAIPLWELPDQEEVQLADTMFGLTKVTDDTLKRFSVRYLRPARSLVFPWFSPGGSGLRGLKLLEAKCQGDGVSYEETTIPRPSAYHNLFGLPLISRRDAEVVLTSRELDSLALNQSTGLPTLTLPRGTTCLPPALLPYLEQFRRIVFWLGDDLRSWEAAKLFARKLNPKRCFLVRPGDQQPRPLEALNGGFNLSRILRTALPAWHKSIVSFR

The target of data set [5] is T4, TWINKY (human, UniProt Q96RR1-2 43-582, del579-684).
T4 sequence: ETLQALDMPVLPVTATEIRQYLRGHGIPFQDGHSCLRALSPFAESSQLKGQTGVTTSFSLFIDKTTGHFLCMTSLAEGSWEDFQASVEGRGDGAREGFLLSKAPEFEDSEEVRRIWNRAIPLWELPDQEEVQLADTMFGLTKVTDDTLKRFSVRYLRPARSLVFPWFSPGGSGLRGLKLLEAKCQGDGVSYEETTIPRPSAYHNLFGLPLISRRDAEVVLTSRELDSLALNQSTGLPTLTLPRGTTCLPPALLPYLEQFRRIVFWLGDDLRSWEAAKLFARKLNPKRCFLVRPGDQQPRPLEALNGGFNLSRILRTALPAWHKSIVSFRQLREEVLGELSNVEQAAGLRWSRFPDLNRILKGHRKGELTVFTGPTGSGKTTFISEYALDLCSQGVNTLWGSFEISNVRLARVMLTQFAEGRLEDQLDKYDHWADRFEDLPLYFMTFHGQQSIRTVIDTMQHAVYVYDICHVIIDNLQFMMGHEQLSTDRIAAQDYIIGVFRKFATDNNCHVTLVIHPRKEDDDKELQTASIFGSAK

In the case of TTTTTTTTTTTTTTT (ssDNA) [ss15 poly-dT], the binding result in data set [1] is “no binding”.

Consider TTTTTTTTTTTTTTTTTTTTTTTTTTTTTTTTTTTTTTTTTTTTT (ssDNA) [ss45 poly-dT], for which, in data set [1], the binding result is “binds”.

B1: ds30 (dsDNA)
DNA 1: TGGCACGACAGGTTTCCCGACTGGAAAGCG
DNA 2: CGCTTTCCAGTCGGGAAACCTGTCGTGCCA
Molecule B1 had an equilibrium dissociation constant (Kd) in data set [2] of about 5 nM. In addition, the figures for the binding result in data set [3], in data set [4] and in data set [5] were “binds”, “no binding” and “no binding”, respectively.

B2: ds45 (dsDNA)
DNA 1: TGGCACGACAGGTTTCCCGACTGGAAAGCGGGCAGTCAGCTCTAG
DNA 2: CTAGAGCTGACTGCCCGCTTTCCAGTCGGGAAACCTGTCGTGCCA
For the molecule B2, the binding result in data set [1] is listed as “binds”.

B3: ds15 (dsDNA)
DNA 1: CTCTAGACTCGACCG
DNA 2: CGGTCGAGTCTAGAG
As for B3, the binding result in data set [1] is listed as “binds”.

With TTTTTTTTTTTTTTTTTTTTTTTTTTTTTT (ssDNA) [ss30 poly-dT], in data set [2], the dissociation constant Kd was about 5 nM. Besides, the binding result in data set [4] and in data set [5] was “no binding” each time.
